Reference: US20240294635A1 (CHIA TAI TIANQING PHARMACEUTICAL GROUP, published 2024)

What was measured:
[1] = biological target: T1, CD47 on the red cell surface (Homo sapiens (Human), UniProt Q08722 19-323); test: flow cytometry on fixed red cells, antibody 1 µg/mL
Procedure: (§1) Anticoagulated blood was collected and well mixed with an equal amount of normal saline. The mixture was centrifuged at 2000 rpm/min for 5 min, and the supernatant was removed. […] In the first two washings, the mixture was centrifuged at 2000 rpm/min for 5 min, and in the last washing, the mixture was centrifuged at 2000 rpm/min for 10 min, and the supernatant was removed.

[2] = biological target: T2, human CD47 protein, His Tag (ACRObiosystems, Cat. No. CD7-H5227) (human, UniProt Q08722 19-139); test: ELISA, CD47-His coated, competition with Human-SIRPα-mFc
T2 construct: bought reagent; also called CD47-His; hCD47-His Tag; not shown: His tag

CD47 on HL60 cells = CD47 on HL60 cells (UniProt Q08722 19-323, limits assumed); test: cell-based or functional assay
[3] = biological target: T2, human CD47 protein, His Tag …; test: ELISA, plate coated with CD47-His
Procedure: An ELISA binding assay was performed based on human CD47 protein and anti-CD47 chimeric antibodies or anti-CD47 humanized antibodies. […] The wells were aspirated, and non-specific binding sites were blocked by adding 100 L/well of a blocking solution (PBS with 1% (w/v) bovine serum albumin (BSA, Sigma, Cat. No. B2064-100G)) and incubating the plate at 37° C. for 1 h. After the 96-well plate was washed three times with a washing buffer (PBS with 0.01% (w/v) Tween 20 (Sigma, Cat. No. P9416-100ML)), 100 μL/well of 1:4 serial dilutions (from 30 g/mL) of anti-CD47 antibodies (see Table 3 for chimeric antibodies, and see Table 4 for humanized antibodies) in blocking solution were added, and the plate was incubated at room temperature for 2 h. […] After the 96-well plate was washed, 100 μL/well of a substrate solution TMB (TIANGEN, Cat. No. PA107-01) was added, and the 96-well plate was incubated at room temperature for 10 min. 100 μL/well of a stop solution (1 M H₂SO₄) was added to stop the reaction. Colorimetric signals were generated and read at 450 nm using a multifunctional microplate reader (manufacturer: PerkinElmer; model: EnVision). Data were analyzed using GraphPad Prism5, and EC₅₀ was calculated.

[4] = biological target: T3, human CD47 protein on CHO-K1-CD47 cells (human, UniProt Q08722 19-323); test: cell binding, CHO-K1-CD47 cells, high content imaging
T3 construct: whole, on cells; also called CHO-K1 cells expressing human CD47 protein
Procedure: A cell binding assay of anti-CD47 antibodies (chimeric or humanized) was performed based on the binding to a CHO-K1 cell line stably expressing CD47. CHO-K1-CD47 cells (CHO-K1 cells expressing human CD47 protein) were added to each well of a 96-well plate (Eppendorf, Cat. No. C030730.119) at 1.2×10⁴ cells per well and incubated with anti-CD47 antibodies (20 μg/mL, 1:4 dilution in PBS) at room temperature for 1-2 h. […] The cells were incubated at room temperature for 30 min. The cells were washed three times with PBS buffer. A nuclear dye Hoechst (Sigma, Cat. No. B2261) was diluted with PBS buffer at a dilution ratio of 1:500 and then added to each well at 100 μL/well for staining for 10 min. The cells were washed 3 times with PBS and analyzed using a high content screening system (manufacturer: PerkinElmer; model: Operetta).

[5] = biological target: T2, human CD47 protein, His Tag …; test: Biacore SPR, 25 C, antibody captured on CM5 chip
[6] = biological target: T4, cynomolgus/rhesus macaque CD47 protein, His Tag (ACRObiosystems, Cat. No. CD7-C52H1) (cynomolgus monkey (cynomolgus/rhesus …, UniProt A0A2K5X523 19-141)); test: Biacore SPR, 25 C, antibody captured on CM5 chip
T4 construct: bought reagent; also called Cynomolgus monkey CD47 protein
T4 sequence (A0A2K5X523 entry or part of it limits assumed): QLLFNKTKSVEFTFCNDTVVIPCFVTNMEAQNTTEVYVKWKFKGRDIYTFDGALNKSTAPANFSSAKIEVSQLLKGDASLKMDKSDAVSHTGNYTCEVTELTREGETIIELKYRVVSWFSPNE

[7] = biological target: T1, CD47 on the red cell surface; test: flow cytometry on fixed red cells, antibody 10 µg/mL
Procedure: as §1

Binder	MFI [1] [MFI]	IC50 [2] [µg/mL]	rate of phagocytosis, antibody 1 µg/mL (CD47 on HL60 cells) [%]	rate of phagocytosis, antibody 10 µg/mL (CD47 on HL60 cells) [%]	EC50 [3] [µg/mL]	EC50 [4] [µg/mL]	Kd [5] [nM]	Kd [6] [nM]	MFI [7] [MFI]
hz3F10-1.1 (antibody, human IgG4 S228P, kappa, V domains shown, humanized 3F10, full-length heavy and light chains) VH: QVQLVQSGAEVKKPGSSVKVSCKASGYTFSRYWIEWVRQAPGQGLEWMGEFIPGSDTTNYAQKFQGRVTITADISTSTAYMELSSLRSEDTAVYYCARGGLRRMDYWGQGTLVTVSS VL: DIQMTQSPSSLSASVGDRVTITCRASSSVSSTYLHWYQQKPGKAPKLLIYTTSTLASGVPSRFSGSGSGTDFTLTISSLQPEDFATYYCQQFSDSTWTFGQGTKLEIKR	4450	1.53	41.2	43.1	0.07	0.876	0.946	1.31	50500
hz3F10-1.2 (antibody, human IgG4 S228P, kappa, V domains shown, humanized 3F10, full-length heavy and light chains) VH: QVQLVQSGAEVKKPGSSVKVSCKASGYTFSRYWIEWVRQAPGQGLEWMGEFIPGSDTTNYAQKFQGRVTITAEISTNTAYMELSSLRSEDTAVYYCARGGLRRMDYWGQGTLVTVSS VL: DIQMTQSPSSLSASVGDRVTITCRASSSVSSTYLHWYQQKPGKAPKLLIYTTSTLASGVPSRFSGSGSGTDFTLTISSLQPEDFATYYCQQFSDSTWTFGQGTKLEIKR	6250	1.69	55.5	38.9	0.125	1.27	0.904	1.33	56700
hz3F10-6.1 (antibody, human IgG4 S228P, kappa, V domains shown, humanized 3F10, full-length heavy and light chains) VH: QVQLVQSGAEVKKPGSSVKVSCKASGYTFSRYWIEWVRQAPGQGLEWMGEFIPGSDTTNYAQKFQGRVTITADISTSTAYMELSSLRSEDTAVYYCARGGLRRMDYWGQGTLVTVSS VL: DIQMTQSPSSLSASVGDRVTITCRASSSVSSTYLHWYQQKPGKAPKLWIYTTSTLASGVPSRFSGSGSGTSYTLTISSLQPEDFATYYCQQFSESTWTFGQGTKLEIKR	7580	1.77	47.6	60.9	0.0563	1.18	0.592	2.47	53000
hz3F10-2.1 (antibody, human IgG4 S228P, kappa, V domains shown, humanized 3F10, full-length heavy and light chains) VH: QVQLVQSGAEVKKPGSSVKVSCKASGYTFSRYWIEWVRQAPGQGLEWMGEFIPGSDTTNYAQKFQGRVTITADISTSTAYMELSSLRSEDTAVYYCARGGLRRMDYWGQGTLVTVSS VL: DIQMTQSPSSLSASVGDRVTITCRASSSVSSTYLHWYQQKPGKAPKLLIYTTSTLASGVPSRFSGSGSGTDFTLTISSLQPEDFATYYCQQFSESTWTFGQGTKLEIKR	8450	1.61	47.2	55.2	0.0809	1.07	0.836	1.17	53200
hz3F10-2.2 (antibody, human IgG4 S228P, kappa, V domains shown, humanized 3F10, full-length heavy and light chains) VH: QVQLVQSGAEVKKPGSSVKVSCKASGYTFSRYWIEWVRQAPGQGLEWMGEFIPGSDTTNYAQKFQGRVTITAEISTNTAYMELSSLRSEDTAVYYCARGGLRRMDYWGQGTLVTVSS VL: DIQMTQSPSSLSASVGDRVTITCRASSSVSSTYLHWYQQKPGKAPKLLIYTTSTLASGVPSRFSGSGSGTDFTLTISSLQPEDFATYYCQQFSESTWTFGQGTKLEIKR	5610	1.73	44.2	34.7	0.106	1.12	0.779	1.14	56100
hz3F10-5.2 (antibody, human IgG4 S228P, kappa, V domains shown, humanized 3F10, full-length heavy and light chains) VH: QVQLVQSGAEVKKPGSSVKVSCKASGYTFSRYWIEWVRQAPGQGLEWMGEFIPGSDTTNYAQKFQGRVTITAEISTNTAYMELSSLRSEDTAVYYCARGGLRRMDYWGQGTLVTVSS VL: DIQMTQSPSSLSASVGDRVTITCRASSSVSSTYLHWYQQKPGKAPKLWIYTTSTLASGVPSRFSGSGSGTSYTLTISSLQPEDFATYYCQQFSDSTWTFGQGTKLEIKR	5130	1.82	47.1	29.6	0.106	1.26	0.896	1.4	53300
hz3F10-5.1 (antibody, human IgG4 S228P, kappa, V domains shown, humanized 3F10, full-length heavy and light chains) VH: QVQLVQSGAEVKKPGSSVKVSCKASGYTFSRYWIEWVRQAPGQGLEWMGEFIPGSDTTNYAQKFQGRVTITADISTSTAYMELSSLRSEDTAVYYCARGGLRRMDYWGQGTLVTVSS VL: DIQMTQSPSSLSASVGDRVTITCRASSSVSSTYLHWYQQKPGKAPKLWIYTTSTLASGVPSRFSGSGSGTSYTLTISSLQPEDFATYYCQQFSDSTWTFGQGTKLEIKR	7400	1.7	50.5	58.5	0.0993	1.48	0.96	1.3	50600
hz3F10-6.2 (antibody, human IgG4 S228P, kappa, V domains shown, humanized 3F10, full-length heavy and light chains) VH: QVQLVQSGAEVKKPGSSVKVSCKASGYTFSRYWIEWVRQAPGQGLEWMGEFIPGSDTTNYAQKFQGRVTITAEISTNTAYMELSSLRSEDTAVYYCARGGLRRMDYWGQGTLVTVSS VL: DIQMTQSPSSLSASVGDRVTITCRASSSVSSTYLHWYQQKPGKAPKLWIYTTSTLASGVPSRFSGSGSGTSYTLTISSLQPEDFATYYCQQFSESTWTFGQGTKLEIKR	3440	1.84	49.3	44.2	0.129	1.49	0.765	1.15	55900
hz14A9-2.3 (antibody, human IgG4 S228P, kappa, V domains shown, humanized 14A9, full-length heavy and light chains) VH: QVQLVQSGAEVKKPGASVKVSCKVSGFNIEDDYIEWVRQAPGQGLEWMGRIDPANDKTKYAQKFQGRVTMTGDTSTNTVYMELSSLRSEDTAVYYCARPGLRRYYSMDYWGQGTLVTVSS VL: DIQMTQSPSSLSASVGDRVTITCKASENVVSYVSWYQQKPGKAPKLLIYGASNRYTGVPSRFIGSGSSTDFTLTISSLQPEDFATYYCGQSYSYPLTFGQGTKLEIKR	2510	0.703	71.5	74.9	0.157	0.499	0.204	3.07	11000
hz14A9-2.4 (antibody, human IgG4 S228P, kappa, V domains shown, humanized 14A9, full-length heavy and light chains) VH: QVQLVQSGAEVKKPGASVKVSCKVSGFNIEDDYIEWVRQAPGQGLEWMGRIDPANDKTKYAQKFQGRVTMTGDTSTNTVYMELSSLRSEDTAVYYCTRPGLRRYYSMDYWGQGTLVTVSS VL: DIQMTQSPSSLSASVGDRVTITCKASENVVSYVSWYQQKPGKAPKLLIYGASNRYTGVPSRFIGSGSSTDFTLTISSLQPEDFATYYCGQSYSYPLTFGQGTKLEIKR	5240	0.621	81.7	81.7	0.339	0.471	8.55	2	15000
